From patent publication US20200147199A1 come the findings set out here.

First the molecules themselves.
B1: Z005 (MEX18_13) (antibody, V domains shown)
VH: EVQLLESGGGLVQPGGSLRLSCAASGFTFSSYAMSWVRQAPGKGLEWVSSFSGIDDSTWYADSVKGRFTISRDNSKSTLYLQMNSLRAEDTAVYYCAKDRLVRGFAEVLDYWGRGTLVTVSS
VL: DIQMTQSPSSLSASVGDRVTITCRASQDISKYLAWYQQRPGKVPNLLIYTASTLQSGVPSRFSGSGSGTHFTLTISSLQPEDVATYYCQKYNSVPWTFGQGTKVEIK
B2: Z050 (BRA138_28) (antibody, V domains shown)
VH: QVQLVQSGAEVKKPGSSVKVSCKAPGGTFSRYSIAWVRQAPGQGLEWMGGINPTFTTPNYAQKFQGRVTITADESTNTAYLDLSSLRSEDTAVYYCARFRYYYESGGYSDASPYYLDYWGQGTLVTVSS
VL: EIVLTQSPATLSLSPGERVTLSCRASQSVSSYLAWYQQKPGQAPRLLIYDASNRATGIPARFTGSGSGTDFTLTISSLEPEDFAVYYCQQRSNWPLTFGGGTKVEIK
B3: Z055 (MEX84_p4-61) (antibody, V domains shown)
VH: EVQLVQSGAEVKKPGASVKVSCKASGYTFSGYYIHWLRQAPGQGLEWMGWINSNSGGADSGPRFHGRVTMTRDTSINTAYLELTNLRSDDTAVYYCARRTYYDTRFPYWYFDLWGRGTLVTVSS
VL: AIRMTQSPSSLSASVGDRVTITCRASQDIGSYLNWYQQKPGKAPNVLISAASTLQSGVPSRISGIGSGTDFTLTISSLQPEDFATYYCQQSLSAPYTFGQGTKLEIK
B4: Z051 (BRA138_59) (antibody, V domains shown)
VH: QVQLQESGPGLVKPSQTLSLTCTVSGVSISSGGYYYSWFRQLPGKGLEWIGHIYYTGNTHYNPSLRSRLTISVDTSKNQFSLKLSSVTAADTARYYCARAWCEYAAYCWFDPWGRGTLVTVSS
VL: EIVLTQSPGTLSLSPGERATLSCRASQSVTSSYLAWYQHKPGQAPRLLIYGASSRAPGIPDRFSGSGSGTDFTLTISRLEPEDFAVYWCQQYGRSPFTFGQGTKLEIK
B5: Z053 (BRA138_65) (antibody, V domains shown)
VH: QLQLQESGPGLVKPSETLSLTCTVSGGSISSYNYYWGWIRQPPGKGLEFIGSIYYTGSTYYNPSLRSRVTISVDTSKNQFSLKLTSVTAADTAVYYCARHGPGMGHNWYFDLWGRGTLVTVSS
VL: EIVLTQSPATLSLSPGERATLSCRASQSISSYLAWYQQKPGQAPRLLIYDASNRAPGIPARFSGSGSGTDFTLTISSLEPEDFAVYYCQQRSTWLTFGGGTKVEIK
B6: Z056 (MEX84_p2-94) (antibody, V domains shown)
VH: EVQLVQSGAEVKKPGASVKVSCKASGNTFMGYYFHWVRQAPGQGLEWMGWINPNSGHANIAQTFQGRVTMTRDPSITTAYMELSRLRSDDTAVFYCARGGMLGQLWALDNWGQGTLVTVSS
VL: DIQMTQSPSTLSASVGDRVTITCRASQSISHWLAWYQQRPGEAPKLLIYQASTLESGVPSRFSGSGSGTEFTLSISSLQPDDFATYYCQQYQSSPYTFGQGTKLEIK
B7: Z059 (MEX84_p4-34) (antibody, V domains shown)
VH: EVQLVQSGAEVKTPGSSVKVSCKTSGGTFSNFAITWVRQAPGQGLEWMGGIIPLFGITNYTQKFQGRVTITTDESKTTAYMDLSGLRSEDTAVYFCARGRDSSGRLLDHWGQGTLVTVSS
VL: EIVMTQSPATLSVSPGERATLSCRASQTVNRNLAWYQQKPGQAPRLLIYAASARATGVPARFSGSGSGTEFTLTISSLQSEDFVVYYCQQYNNWPPLTFGGGTKLEIK
B8: Z013 (MEX18_84) (antibody, V domains shown)
VH: EVQLLESGGGLVQPGGSLRLSCAASGFTFTSYAMNWVRQAPGKGLEWVSGIGGRGAIAGDGSIYYADSVKGRFTISRDNSKNIVYLQMNGLRVEDTAVYYCAKDRVAFDGFHVWGQGTLVTVSS
VL: DIQMTQSPPTLSASVGDRVTITCRASQSISSWLAWYQQKPGKAPKLLIYKASSLESGVPSRFSGSGSGTEFSLTISSLQPEDFATYYCQQYNSYPWTFGQGTKVEIK
B9: Z052 (BRA138_62) (antibody, V domains shown)
VH: QVQLQESGPGLVKPSQTLSLTCTVSGGSITGGVYYWNWIRHHPGKGLEWIGYMFYSGDTDYNPSLRSRVTISGDTSKNKFSLNLNSVTAADTAVYYCARAGFDYGSPVSAFDIWGQGTLVTVSS
VL: EIVLTQSPATLSLSPGERATLSCRASQSVSSTYLVWYQQKPGQAPRLLIYGASSRATGIPDRFSGSGSGTDFTLTISRLEPEDFAVYFCQQYAHSPRGYTFGQGTKLEIK
B10: Z036 (BRA112_91) (antibody, V domains shown)
VH: EVQLLESGGDLVQPGGSLRLSCAASGFTFSTYGMAWVRQAPGKGLEWLSSISSVDDSKYYAASVKGRFTISRDNSRNTLYLHMNSLRVDDTAVYYCAKDRIPHGLGELYANWGQGTLVTVSS
VL: DIQMTQSPSTLSASVGDRVTITCRASQSISGWLAWYQQKPGKAPRLLMHKASNLYSGVPSRFSGSGSGTEFTLTISSLQPDDFATYYCQHYHSYPYTFGQGTKVEIK
B11: Z017 (MEX84_p2-58) (antibody, V domains shown)
VH: QVQLVQSGAGMRKPGASVKVSCKASGYSFNDYYIHWVRQAPGQGLEWMGWINPKSGFTNYAQRFQGRVTMTGDTSNSVAYMELTRLTSDDTAVYYCARGGRINAPLGFDPWGQGTLVTVSS
VL: EIVLTQSPDTLSLSPGETATLSCRASQSIGSISLGWYQQKFGQAPRLLIYGASTRATGTPDRFSGSGSETDFTLTISRLEPEDSAVYYCQQYVSSPLRFGGGTKVEIK
B12: Z007 (MEX105_50) (antibody, V domains shown)
VH: EVQLLESGGGLVRPGGSLRLSCTASGFTFRRYAMAWVRQAPGKGLEWVSLIYDGDDSTYYAKSVKGRFAISRDNSKNTLSLQMNSLRAEDTAVYYCVKDRDNGWSSIVDWGQGTLVTVSS
VL: DIQMTQSPSTLSASVGDRVTITCRASHSISGWLAWYQQKPGKAPKLLIYQASILESGVPSRFSGSGSGTEFTLTIGSLQPEDFATYFCQQYSTFWTFGQGTKVEIK
B13: Z008 (MEX105_60) (antibody, V domains shown)
VH: EVQLLESGGGLVRPGGSLRLSCTASGFTFRRFAMAWVRQAPGKGLEWVSLIWNGDDSTYYAESVRGRFTISRDNSHNTLSLQMRSLRAEDTAIYYCVKDRDNGWSSIVDWGQGTLVTVSS
VL: DIQMTQSPSTLSASVGDRVTITCRASQTIGNWLAWYQQKPGKAPKLLIYQASVLESGVPSRFSGSGSGTEFTLTISSLQPEDFATYFCQQYSTFWTFGQGTKVEIK
B14: Z009 (MEX105_64) (antibody, V domains shown)
VH: EVQLLESGGGLVRPGGSLRLSCTASGFTFRRYAMAWVRQAPGKGLEWVSLIYNGDDSTYYAESVKGRFTVSRDNSQNTLSLQMNSLRAEDTAIYYCVRDRDNGWSSIVDWGQGTLVTVSS
VL: DIQMTQSPSTLSASVGDRVTITCRASRTIGSWLAWYQQKPGKAPKLLIYQASILEGGVPSRFSGSVSGTEFTLTIRSLQPEDFATYFCQQYSTFWTFGQGTKVEIK
B15: Z002 (MEX18_27) (antibody, V domains shown)
VH: EVQLLESGGGLVQPGGSLRLSCATSGFTFSTYAMSWVRQAPGKGLEWVSSFSGVDDSTYYAESVKGRFTISRDNSKNTVYLQMTRLRAEDTAVYYCAKDRGPRGVGELFDSWGQGTLVTVSS
VL: DIQMTQSPSTLSASVGDRVTMTCRASQSINRWLAWYQQKPGKAPKLLIYTTSTLKSGVPSRFSGSGSGTEFTLTISSLQPDDFATYYCQHFHSVPWTFGQGTKVEIK
B16: Z003 (MEX18_58) (antibody, V domains shown)
VH: EVQLLESGGGLVQPGGSLRLSCATSGFTFTTFAMSWVRQAPGKGLEWVSSISGADDSTYYAASVKGRFTISRDNSRSTLFLQMNSLRAEDTAVYYCAKDRGPRGVGELFDSWGQGTLVTVSS
VL: DIQMTQSPSTLSASVGDRVTITCRASQSISKWLAWYQQKPGKAPRLLIYTTSTLKSGVPSRFSGSGSGTEFTLTISSLQPDDFATYYCQHFFSVPWTFGQGTKVEIK
B17: Z011 (MEX105_15) (antibody, V domains shown)
VH: EVQLLESGGGLVQPGGSLRLSCAASGFTFRTYAMSWVRQPPGKGLEWVSSISAREDSTYFAASVRGRFTISRDNSKNTLYLQMNNLRAEDTALYYCAKDRLQLGVGELYESWGQGTLVTVSS
VL: DIQMTQSPSTLSASVGDRVTITCRASQNINSWLAWYQQKPGKAPKLLIYMASSLQSGVPSRFSGSGSGTEFTLTVSSLQPDDFATYYCQHYHSYPWTFGQGTKVEIK
B18: Z034 (BRA112_09) (antibody, V domains shown)
VH: EVQLLESGGGLAQPGGSLRLSCETSGFTFRSYGMGWVRQAPGKGLEWVSSIYISGDSTYYAASVKGRFTISRDNSKSTLYLQMDRLTAEDTAVYYCVRDRIQGGFGELYRYWGQGTLVTVSS
VL: DIQMTQSPSTLSASVGDRVTMTCRASQSVNKWLAWYQQKPGKAPKLLIYETSILESGVSSRFSGSGSGTEFTLTISSLQPDDFATYYCQHYHGYPWTFGQGTKVEIK
B19: Z061 (BRA112_36) (antibody, V domains shown)
VH: EVQLVESGGGVVQPGRSLRLSCAASGFTFSISTIHWVRQAPGKGLEYVVVISHDGNTKYYADSVKGRFIISRDNSKNTVFLQMNSLRPVDTAVYYCARGEVGYFDLWGRGTLVTVSS
VL: EIVLTQSPATLSLSPGERATLSCRASQSVSSFLAWYQQKPGQPPRLLIYDASTRATGIPARFSGSGSGTDFTLTISSLEPEDFAVYYCQQRSNWPPITFGQGTRLEIK
B20: Z057 (MEX84_p4-54) (antibody, V domains shown)
VH: EVQLVQSGAEVKRPGASVKVSCKASGYTFADYYIHWVRQAPGLGLEWMGWINPKTGFSHYEQTFQGRVTMARDTSIPAAYMELSSLKSDDTAIYYCARGGRINVAEALRYWGQGSLVTVSS
VL: DIQMTQSPSTLSTFVGDRVTITCRASQTIGDWLAWYQQKPGKAPKLLISKATRLESGVPSRFSGSGSETEFSLTINSLQPDDVAAYYCQQYMSYPWTFGQGTKLEIK
B21: Z062 (BRA112_70) (antibody, V domains shown)
VH: EVQLVESGGGVVQPGRSLRLSCAASGFSFSSHAMYWVRQAPGKGLEWVAIVSYDGSTKNYADSVKGRFTISRDNSKNTIYLHLNSLRAEDTAVYFCAREVDGIYGYLHYWGQGTLVTVSS
VL: EIVLTQSPATLSLSPGERATLSCRARQNVRNFLAWYQQKPGQAPRLLIYDASNRATDIPARFSGSGSGTDFTLTISSLEPEDFAVYYCQQRSYSITFGQGTRLEIK

The target in the test is ZIKV E Domain III ([..]), polyhistidine-AviTag, produced in HEK-293-6E cells (ZIKV). The experiment in a line: ELISA on coated ZIKV EDIII. The settings on record: remark: other sources report otherwise. (ELISA stands for enzyme-linked immunosorbent assay.)
The term EC50 denotes the concentration at which the effect is half-maximal. Take B1: the EC50 came out at 0.216 µg/mL.
In the case of B2, the concentration for a half-maximal effect (EC50) was 0.0303 µg/mL. This EC50 is about 7.1-fold lower than that of the molecule before.
The value for B3 was 1.88 µg/mL.
The value for B4 was 1.86 µg/mL; that for B5 was 1.68 µg/mL.
Consider B6, for which the EC50 was 0.982 µg/mL.
The value for B7 was 0.61 µg/mL.
The value for B8 was > 10 µg/mL; that for B9 was 0.0131 µg/mL.
The result for B10 reads 0.0172 µg/mL.
As for B11, the EC50 was > 10 µg/mL.
The result for B12 reads 0.0346 µg/mL; that for B13, 0.0326 µg/mL; that for B14, 0.0284 µg/mL.
The value for B15 was 0.0252 µg/mL.
The result for B16 reads 0.0255 µg/mL.
Turning to B17, the EC50 turned out to be 0.038 µg/mL.
The result for B18 reads 0.0235 µg/mL; that for B19, 0.311 µg/mL; that for B20, 0.0828 µg/mL.
The value for B21 was 0.208 µg/mL.
